From paper PMC8635156, “Structural and Functional Analysis of SsaV Cytoplasmic Domain and Variable Linker States in the Context of the InvA-SsaV Chimeric Protein” (Microbiology Spectrum, 2021)

Experiments:
[1] = target: the molecule itself; test: SEC; gel filtration of purified cytoplasmic domains (Superdex 200 Increase 10/300 GL; 20 mM Tris-HCl pH 8.0, 150 mM NaCl); Fig. 1B at two salt concentrations (physiological and high salt); Fig. 4D wild type and variants
[2] = target: the molecule itself; test: cryo-EM structure; single particle analysis of the GDN-solubilised chimera ISS (~10 mg/ml); C9 symmetry, 2.11 Å for the SsaVC part; TM and linker regions hardly visible

B1: SsaV cytoplasmic domain (SsaVC), residues 346-682 (domain or fragment)
chain: MVPGACPLILRLSPTLHSADLIRDIDAMRWFLFEDTGVPLPEVNIEVLPEPTEKLTVLLYQEPVFSLSIPAQADYLLIGADASVVGDSQTLPNGMGQICWLTKDMAHKAQGFGLDVFAGSQRISALLKCVLLRHMGEFIGVQETRYLMNAMEKNYSELVKELQRQLPINKIAETLQRLVSERVSIRDLRLIFGTLIDWAPREKDVLMLTEYVRIALRRHILRRLNPEGKPLPILRIGEGIENLVRESIRQTAMGTYTALSSRHKTQILQLIEQALKQSAKLFIVTSVDTRRFLRKITEATLFDVPILSWQELGEESLIQVVESIDLSEEELADNEE
notes: SsaV (SctV of the SPI-2 T3SS), Salmonella enterica serovar Typhimurium, residues 346-682 (cytoplasmic domain with the last residues of the linker); The His6 tag is thrombin-cleavable (pET15b); the purification as described names no cleavage step; also called SctVC of SPI-2; source: E. coli BL21, purified (Ni-NTA, Hitrap Q anion exchange, SEC)
- stoichiometry N [1]: 9

B2: InvATM-SsaVL-SsaVC chimeric full-length protein (ISS) (other)
chain: MLLSLLNSARLRPELLILVLMVMIISMFVIPLPTYLVDFLIALNIVLAILVFMGSFYIDRILSFSTFPAVLLITTLFRLALSISTSRLILIEADAGEIIATFGQFVIGDSLAVGFVVFSIVTVVQFIVITKGSERVAEVAARFSLDGMPGKQMSIDADLKAGIIDADAARERRSVLERESQLYGSFDGAMKFIKGDAIAGIIIIFVNFIGGISVGMTRHGMDLSSALSTYTMLTIGDGLVAQIPALLIAISAGFIVTRVNGDSDNMGRNIMTQLLNNPFVLVVTAILTISMGTLPGFPLPVFVILSVVLSVLFYFIRRKKSVVSANGVEAPEKDSMVPGACPLILRLSPTLHSADLIRDIDAMRWFLFEDTGVPLPEVNIEVLPEPTEKLTVLLYQEPVFSLSIPAQADYLLIGADASVVGDSQTLPNGMGQICWLTKDMAHKAQGFGLDVFAGSQRISALLKCVLLRHMGEFIGVQETRYLMNAMEKNYSELVKELQRQLPINKIAETLQRLVSERVSIRDLRLIFGTLIDWAPREKDVLMLTEYVRIALRRHILRRLNPEGKPLPILRIGEGIENLVRESIRQTAMGTYTALSSRHKTQILQLIEQALKQSAKLFIVTSVDTRRFLRKITEATLFDVPILSWQELGEESLIQVVESIDLSEEELADNEE
notes: InvA, Salmonella enterica serovar Typhimurium, transmembrane region: what is left when residues 316-685 are replaced (residues 1-315); SsaV, Salmonella enterica serovar Typhimurium, residues 326-682 (linker SsaVL and cytoplasmic domain SsaVC); Eluted from the Strep-Tactin beads after the SUMO tag was cleaved on the beads; also called InvATM-SsaVC chimera; chimeric ISS; source: E. coli BL21, …
- stoichiometry N [2]: 9
